Literature values as cited in article PMC10466379.

What was measured:
Test in all cases: not stated (values taken from the PKAD database; the article says PKAD values come mainly from NMR or IR titrations)
Details in all cases: not stated (the curated set excludes proteins with ligands, nucleic acids and structural metal ions)
Lys39 = Lys39 (UniProt position 39, EFPGGKIEMGE)
His137 = His137 (UniProt position 164, CGIIAHTKENQ)
His150 = His150 (UniProt position 177, LKLCSH-----)
His50 = His50 (UniProt position 77, GSSYPHWFTNG)
His92 [1] = target: His92 (UniProt position 119, NGKTDHYLLQF)
His36 = His36 (UniProt position 63, ESNSHHAPLSD)
His35 = His35 (UniProt position 62, AESNSHHAPLS)
Glu96 = Glu96 (UniProt position 123, DHYLLEFPTFP)
His92 [2] = target: His92 (UniProt position 119, NGKTDHYLLEF)
His82 = His82 (UniProt position 109, DRPPKHSKDGN)
His104 = His104 (UniProt position 131, TFPDGHDYKFD)
His72 = His72 (UniProt position 73, GINTAHKARQV)
His60 = His60 (UniProt position 60, NETQTHQQVGN)
His46 = His46 (UniProt position 128, TPETKHPKKGV)
His121 = His121 (UniProt position 203, KPNNTHEQHLR)
His124 [3] = target: His124 (UniProt position 206, NTHEQHLRKSE)
His8 [4] = target: His8 (UniProt position 90, STKKLHKEPAT)
His8 [5] = target: His8 (UniProt position 90, STKKLHAEPAT)
His124 [6] = target: His124 (UniProt position 206, NTHEQHLRASE)
His124 [7] = target: His124 (UniProt position 206, NTHEQHLRKAE)
Glu92 = Glu92 (UniProt position 174, RGLAYEYADGK)
Glu36 = Glu36 (UniProt position 118, PMTFRELLVDT)
Glu103 = Glu103 (UniProt position 185, MVNEAEVRQGL)
Glu39 = Glu39 (UniProt position 121, FRLLLEDTPET)
Glu66 = Glu66 (UniProt position 148, FTKKMEENAKK)
Glu74 = Glu74 (UniProt position 156, AKKIEEEFDKG)
Glu99 = Glu99 (UniProt position 181, ADGKMENEALV)

MutT protein (Escherichia coli (inferred from PDB 1MUT; not stated in the article))
pKa (Lys39): 8.4

alpha-sarcin E96Q (parent PDB 1DE3) (Aspergillus giganteus (inferred from PDB 1DE3; not stated in the article); E96Q)
pKa (His137): 5.9
pKa (His150): 7.9
pKa (His50): 6.4
pKa (His92 [1]): 7.2
pKa (His36): 7.3
pKa (His35): 6.3

alpha-sarcin H50Q (parent PDB 1DE3) (Aspergillus giganteus (inferred from PDB 1DE3; not stated in the article); H50Q)
pKa (His137): 6.1
pKa (His150): 7.3
pKa (Glu96): 5
pKa (His92 [2]): 7.3
pKa (His82): 7.4
pKa (His35): 6.2

alpha-sarcin H50Q/H137Q (parent PDB 1DE3) (Aspergillus giganteus (inferred from PDB 1DE3; not stated in the article); H50Q;H137Q)
pKa (His150): 7.6
pKa (Glu96): 5.4
pKa (His92 [2]): 7.4
pKa (His82): 7
pKa (His104): 7.3
pKa (His36): 7.3
pKa (His35): 6.3

alpha-sarcin H137Q (parent PDB 1DE3) (Aspergillus giganteus (inferred from PDB 1DE3; not stated in the article); H137Q)
pKa (His150): 7.7
pKa (Glu96): 5.7
pKa (His92 [2]): 7.1
pKa (His82): 7.4
pKa (His104): 6.6
pKa (His35): 6.3

bovine heart phosphotyrosyl phosphatase (low molecular weight PTPase) (Bos taurus)
pKa (His72): 9.19

family 11 xylanase (PDB 1H4G) (Bacillus agaradhaerens (inferred from PDB 1H4G; not stated in the article))
pKa (His60): 4.01

staphylococcal nuclease D77A (parent PDB 1STN) (Staphylococcus aureus (inferred from PDB 1STN; not stated in the article); D77A)
pKa (His46): 6.43
pKa (His121): 5.89
pKa (His124 [3]): 5.77
pKa (His8 [4]): 6.44

staphylococcal nuclease D77N (parent PDB 1STN) (Staphylococcus aureus (inferred from PDB 1STN; not stated in the article); D77N)
pKa (His46): 6.53
pKa (His121): 5.77
pKa (His124 [3]): 5.81
pKa (His8 [4]): 6.29

staphylococcal nuclease E73A (parent PDB 1STN) (Staphylococcus aureus (inferred from PDB 1STN; not stated in the article); E73A)
pKa (His46): 6.51
pKa (His121): 5.24
pKa (His124 [3]): 5.63
pKa (His8 [4]): 6.47

staphylococcal nuclease E101A (parent PDB 1STN) (Staphylococcus aureus (inferred from PDB 1STN; not stated in the article); E101A)
pKa (His46): 6.4
pKa (His121): 5.26
pKa (His124 [3]): 5.04
pKa (His8 [4]): 6.49

staphylococcal nuclease K9A (parent PDB 1STN) (Staphylococcus aureus (inferred from PDB 1STN; not stated in the article); K9A)
pKa (His8 [5]): 6.73
pKa (His46): 6.47
pKa (His121): 5.48
pKa (His124 [3]): 5.67

staphylococcal nuclease K127A (parent PDB 1STN) (Staphylococcus aureus (inferred from PDB 1STN; not stated in the article); K127A)
pKa (His46): 6.45
pKa (His121): 5.3
pKa (His8 [4]): 6.51
pKa (His124 [6]): 5.99

staphylococcal nuclease S128A (parent PDB 1STN) (Staphylococcus aureus (inferred from PDB 1STN; not stated in the article); S128A)
pKa (His46): 6.49
pKa (His124 [7]): 5.71
pKa (His121): 5.25
pKa (His8 [4]): 6.53

staphylococcal nuclease Y91A (parent PDB 1STN) (Staphylococcus aureus (inferred from PDB 1STN; not stated in the article); Y91A)
pKa (His46): 6.52
pKa (His121): 5.32
pKa (His124 [3]): 5.82
pKa (His8 [4]): 6.42

staphylococcal nuclease Y91F (parent PDB 1STN) (Staphylococcus aureus (inferred from PDB 1STN; not stated in the article); Y91F)
pKa (His46): 6.39
pKa (His121): 6.04
pKa (His124 [3]): 5.65
pKa (His8 [4]): 6.36

staphylococcal nuclease Y93A (parent PDB 1STN) (Staphylococcus aureus (inferred from PDB 1STN; not stated in the article); Y93A)
pKa (His46): 6.48
pKa (His121): 5.94
pKa (His124 [3]): 5.68
pKa (His8 [4]): 6.45

staphylococcal nuclease Y93F (parent PDB 1STN) (Staphylococcus aureus (inferred from PDB 1STN; not stated in the article); Y93F)
pKa (His46): 6.42
pKa (His124 [3]): 5.52
pKa (His8 [4]): 6.46

staphylococcal nuclease variant I92E (parent PDB 2LKV) (Staphylococcus aureus (inferred from PDB 2LKV; not stated in the article); I92E)
pKa (Glu92): 9

staphylococcal nuclease variant L36E (parent PDB 2LKV) (Staphylococcus aureus (inferred from PDB 2LKV; not stated in the article); L36E)
pKa (Glu36): 8.7

staphylococcal nuclease variant L103E (parent PDB 2LKV) (Staphylococcus aureus (inferred from PDB 2LKV; not stated in the article); L103E)
pKa (Glu103): 8.9

staphylococcal nuclease variant V39E (parent PDB 2LKV) (Staphylococcus aureus (inferred from PDB 2LKV; not stated in the article); V39E)
pKa (Glu39): 8.2

staphylococcal nuclease variant V66E (parent PDB 2LKV) (Staphylococcus aureus (inferred from PDB 2LKV; not stated in the article); V66E)
pKa (Glu66): 8.5

staphylococcal nuclease variant V74E (parent PDB 2LKV) (Staphylococcus aureus (inferred from PDB 2LKV; not stated in the article); V74E)
pKa (Glu74): 7.8

staphylococcal nuclease variant V99E (parent PDB 2LKV) (Staphylococcus aureus (inferred from PDB 2LKV; not stated in the article); V99E)
pKa (Glu99): 8.4
